Test results from patent US20220119522A1 (DENALI THERAPEUTICS, published 2022).
No end group written: not given here.

Legend:
[1] = target: T1, human TREM2 on the cell surface (human, UniProt Q9NZC2 19-230); assay: cell-based or functional assay
T1 sequence: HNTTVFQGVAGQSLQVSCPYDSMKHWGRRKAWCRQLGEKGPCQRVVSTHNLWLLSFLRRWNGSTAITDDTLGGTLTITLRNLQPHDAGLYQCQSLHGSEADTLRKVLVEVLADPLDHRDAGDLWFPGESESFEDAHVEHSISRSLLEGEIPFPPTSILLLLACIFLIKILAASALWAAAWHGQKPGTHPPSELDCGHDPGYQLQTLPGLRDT

[2] = target: T1, human TREM2 on the cell surface; assay: cell binding, human macrophages, dose titration
[3] = target: T1, human TREM2 on the cell surface; assay: flow cytometry, dose-titrated binding to HEK293-H6 cells
[4] = target: T2, His-tagged human TREM2 ECD (human, UniProt Q9NZC2 19-172); assay: SPR (Biacore); Table 5 run, parent beside its humanized variants
T2 construct: Biacore and HDX say only recombinant human TREM2 (ECD); also called recombinant human TREM2; hTREM2
T2 sequence: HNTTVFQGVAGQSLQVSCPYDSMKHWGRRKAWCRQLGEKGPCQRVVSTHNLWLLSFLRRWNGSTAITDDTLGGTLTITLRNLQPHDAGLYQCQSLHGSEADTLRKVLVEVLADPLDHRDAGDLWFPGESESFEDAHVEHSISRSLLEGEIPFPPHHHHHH

[5] = target: T3, human TREM2 full length stalk region peptide (aa 129-172) (human, biotinylated (site not stated)); assay: ELISA on biotinylated peptide captured by streptavidin; A450 normalised to isotype control
T3 construct: also called Human TREM2 peptide (aa 129-172); full-length TREM2 stalk peptide
T3 peptide: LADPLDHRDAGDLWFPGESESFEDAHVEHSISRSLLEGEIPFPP
How it was run: (§1)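 Sandwich ELISA: biotinylated TREM2 stalk peptides captured on streptavidin-coated plates, antibodies added for 1 h in 1% BSA/PBS, binding detected with anti-human kappa-HRP and TMB at A450. Values expressed as fold over isotype-control background.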

[6] = target: T4, mouse TREM2 full length stalk region peptide (aa 131-169) (mouse, UniProt Q99NH8 131-169, biotinylated (site not stated)); assay: as above
T4 peptide (looked up): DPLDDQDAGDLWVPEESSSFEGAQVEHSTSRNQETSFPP
How it was run: as §1

[7] = target: T2, His-tagged human TREM2 ECD; assay: SPR (Biacore), antibody captured via anti-human Fab, recombinant TREM2 ECD injected, 1:1 fit
How it was run: (§2)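 Antibodies captured on a CM5 chip via anti-human Fab, then 3-fold serial dilutions of recombinant human or cynomolgus TREM2 ECD injected at 30 μL/min in HBS-EP+. Association 300 s, dissociation 600+ s, blank-cell subtracted; kon and koff from simultaneous 1:1 Langmuir fit.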

[8] = target: T5, recombinant cynomolgus TREM2 ECD (cynomolgus); assay: as above
T5 construct: extracellular domain; also called cyno TREM2
How it was run: as §2

[9] = target: T3, human TREM2 full length stalk region …; assay: fluorescence polarization assay with TREM2 stalk peptide and ADAM17
Protocol: The ability of anti-TREM2 antibodies to inhibit TREM2 stalk peptide cleavage by ADAM17 was also analyzed using a fluorescence polarization assay. TREM2 stalk peptides were first prepared in assay buffer (25 mM Tris pH 7.5, 2.5 μM ZnCl₂, 0.005% Brij-35) with streptavidin. Anti-TREM2 antibodies were then pre-incubated with TREM2 stalk peptides for 30 minutes at room temperature. After the pre-incubation period, ADAM17 (R&D systems, Catalog No. 930-ADB) was added and incubated with the peptides for 20 hours at 37° C. The following day, samples were further diluted in assay buffer and transferred to a black opaque 384-well plate. Fluorescence polarization was subsequently measured on Perkin Elmer EnVision plate reader. The fluorescence polarization of TREM2 stalk peptides pre-incubated with anti-TREM2 antibody was compared to fluorescence polarization of full-length TREM2 stalk peptide and enzyme control (full-length TREM2 stalk peptide with ADAM17).

[10] = target: T6, human TREM2 truncated stalk peptide (aa 149-163) (human, also: biotinylated (site not given here)); assay: ELISA on biotinylated peptide captured by streptavidin; A450 normalised to isotype control
T6 construct: also called Human TREM2 peptide (aa 149-163); truncated stalk peptide containing the ADAM10/17 cleavage site
T6 peptide: SFEDAHVEHSISRSL
How it was run: as §1

NFAT EC50 (nM), plate coated mAb [1]	pSyk activation (human macrophages) EC50 (nM) [1]	EC50 [2]	EC50 [3]	Kd [4]	fold over background (A450) [5]	fold over background (A450) [6]	Kd [7]	Kd [8]	binding result [9]	fold over background (A450) [10]	Binder	Survival EC50 (nM), plate coated mAb, human macrophages [1]
91.2 nM	7.7 nM	0.5 nM	0.44 nM	9.5 nM	51 fold	33 fold	5.2 nM	2 nM	–	–	CL0020188 (antibody, V domains shown, also called Clone CL0020188) VH: EVKLLDSGGGLVQAGGSLRLSCAGSGFTFTDFYMSWIRQPPGKAPEWLGVIRNKANGYTAGYNPSVKGRFTISRDNTQNILYLQMNTLRAEDTAIYYCARLTYGFDYWGQGVMVTVSS VL: DIVMTQGALPNPVPSGESASITCQSSKSLLHSNGKTYLNWYLQRPGQSPQLLIYWMSTRASGVSDRFSGSGSGTDFTLKISSVEAEDVGVYYCQQFLEYPFTFGSGTKLEIK	2.4 nM
10.9 nM	28.5 nM	4.4 nM	–	–	1.7 fold	1.3 fold	1.47 nM	104 nM	no binding	1.4 fold	CL0020107 (antibody, V domains shown, also called Clone CL0020107) VH: QVQLQQPGAELVKPGASVKMSCRASGYTFTNYWISWVKQRPGQGLEWIGDIYPHSTSTNYNERFRSKATLTVDKSSTTAYMQLSSLTSEDSAVYYCAREGFGISAWGQGTTLTVSS VL: QIVLTQSPAIMSASPGEKVTITCSATSSVSYMHWFQQKPGTSPKLWIYSTSNLASGVPARFSGSGSGTSHSLTISRMEAEDAATYYCQQRSSYPLTFGSGTKLELK	0.53 nM
